In US20230151111A1:
Several values for one entry are separate records, joined by “and”; a condition that tells them apart may be missing. Equal entries are not always repeated. One block for each substance: values may come before it.

Assays:
[1] = biological target: human NT5E-Biotin (human) (UniProt P21589); test: ELISA, NT5E-biotin on streptavidin; antibody 0.333 ug/mL diluted 1:81
[2] = biological target: human NT5E-Biotin (human) (UniProt P21589); test: ELISA, NT5E-biotin on streptavidin; antibody 0.333 ug/mL diluted 1:729
[3] = biological target: human NT5E-Biotin (human) (UniProt P21589); test: ELISA, NT5E-biotin on streptavidin; antibody 0.333 ug/mL diluted 1:9
[4] = biological target: human NT5E-Biotin (human) (UniProt P21589); test: ELISA, NT5E-biotin on streptavidin; antibody 0.333 ug/mL diluted 1:27
[5] = biological target: human NT5E-Biotin (human) (UniProt P21589); test: ELISA, NT5E-biotin on streptavidin
[6] = biological target: human NT5E-Biotin (human) (UniProt P21589); test: ELISA, NT5E-biotin on streptavidin; antibody 0.333 ug/mL diluted 1:3
[7] = biological target: human NT5E-Biotin (human) (UniProt P21589); test: ELISA, NT5E-biotin on streptavidin; antibody 0.333 ug/mL
[8] = biological target: human NT5E(1-552)-his (human) (UniProt P21589); test: BLI (Fortebio), antibody on Protein A sensor, NT5E(1-552)-his 3.125-200 nM, 37 C
[9] = biological target: human NT5E-Biotin (human) (UniProt P21589); test: ELISA, NT5E-biotin on streptavidin; antibody 0.333 ug/mL diluted 1:243
PD-1-mFc (human) [10] = biological target: PD-1-mFc (human) (UniProt Q15116); test: ELISA, PD-1-mFc coated; antibody 1 ug/mL diluted 1:9
PD-1-mFc (human) [11] = biological target: PD-1-mFc (human) (UniProt Q15116); test: ELISA, PD-1-mFc coated; antibody 1 ug/mL diluted 1:3
PD-1-mFc (human) [12] = biological target: PD-1-mFc (human) (UniProt Q15116); test: ELISA, PD-1-mFc coated; antibody 1 ug/mL diluted 1:243
PD-1-mFc (human) [13] = biological target: PD-1-mFc (human) (UniProt Q15116); test: ELISA, PD-1-mFc coated; antibody 1 ug/mL diluted 1:81
PD-1-mFc (human) [14] = biological target: PD-1-mFc (human) (UniProt Q15116); test: ELISA, PD-1-mFc coated; antibody 1 ug/mL diluted 1:27
[15] = biological target: human PD-1-mFc-biotin (human) (UniProt Q15116); test: competitive ELISA, blocking of PD-1-mFc-biotin binding to coated PD-L1-mFc
[16] = biological target: human PD-1-mFc-biotin (human) (UniProt Q15116); test: competitive ELISA, competitor coated PD-L1-mFc; antibody 5 ug/mL diluted 1:9
[17] = biological target: human PD-1-mFc-biotin (human) (UniProt Q15116); test: competitive ELISA, competitor coated PD-L1-mFc; antibody 5 ug/mL diluted 1:81
[18] = biological target: human PD-1-mFc-biotin (human) (UniProt Q15116); test: competitive ELISA, competitor coated PD-L1-mFc; antibody 5 ug/mL diluted 1:729
[19] = biological target: human PD-1-mFc-biotin (human) (UniProt Q15116); test: competitive ELISA, competitor coated PD-L1-mFc; antibody 5 ug/mL
PD-1-mFc (human) [20] = biological target: PD-1-mFc (human) (UniProt Q15116); test: ELISA, PD-1-mFc coated; antibody 1 ug/mL
PD-1-mFc (human) [21] = biological target: PD-1-mFc (human) (UniProt Q15116); test: ELISA, PD-1-mFc coated; antibody 1 ug/mL diluted 1:729
[22] = biological target: human PD-1-mFc-biotin (human) (UniProt Q15116); test: competitive ELISA, competitor coated PD-L1-mFc; antibody 5 ug/mL diluted 1:27
[23] = biological target: human PD-1-mFc-biotin (human) (UniProt Q15116); test: competitive ELISA, competitor coated PD-L1-mFc; antibody 5 ug/mL diluted 1:243
[24] = biological target: human PD-1-mFc-biotin (human) (UniProt Q15116); test: competitive ELISA, competitor coated PD-L1-mFc; antibody 5 ug/mL diluted 1:3

Sequence of human NT5E-Biotin (human) (P21589 27-552 limits assumed, form in doubt): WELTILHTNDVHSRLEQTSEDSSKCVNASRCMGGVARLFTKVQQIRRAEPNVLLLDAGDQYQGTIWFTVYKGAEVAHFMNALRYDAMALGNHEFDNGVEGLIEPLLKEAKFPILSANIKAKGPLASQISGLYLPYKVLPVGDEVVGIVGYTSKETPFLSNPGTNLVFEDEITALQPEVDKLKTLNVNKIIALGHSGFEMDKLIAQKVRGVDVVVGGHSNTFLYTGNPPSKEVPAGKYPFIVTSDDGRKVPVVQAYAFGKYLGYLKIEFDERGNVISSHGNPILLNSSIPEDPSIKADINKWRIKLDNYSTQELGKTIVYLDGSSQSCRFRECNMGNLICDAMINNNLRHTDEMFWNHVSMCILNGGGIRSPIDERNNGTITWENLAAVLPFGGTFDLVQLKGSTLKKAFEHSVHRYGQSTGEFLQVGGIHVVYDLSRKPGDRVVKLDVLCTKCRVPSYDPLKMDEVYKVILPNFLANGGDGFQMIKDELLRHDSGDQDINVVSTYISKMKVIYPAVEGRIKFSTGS
Sequence of human NT5E(1-552)-his (human) (P21589 27-552 limits assumed): as the sequence (P21589 27-552 limits assumed, form in doubt) above
Sequence of human PD-1-mFc-biotin (human) (Q15116 other isoform, or with tags, fused parts or gaps limits assumed): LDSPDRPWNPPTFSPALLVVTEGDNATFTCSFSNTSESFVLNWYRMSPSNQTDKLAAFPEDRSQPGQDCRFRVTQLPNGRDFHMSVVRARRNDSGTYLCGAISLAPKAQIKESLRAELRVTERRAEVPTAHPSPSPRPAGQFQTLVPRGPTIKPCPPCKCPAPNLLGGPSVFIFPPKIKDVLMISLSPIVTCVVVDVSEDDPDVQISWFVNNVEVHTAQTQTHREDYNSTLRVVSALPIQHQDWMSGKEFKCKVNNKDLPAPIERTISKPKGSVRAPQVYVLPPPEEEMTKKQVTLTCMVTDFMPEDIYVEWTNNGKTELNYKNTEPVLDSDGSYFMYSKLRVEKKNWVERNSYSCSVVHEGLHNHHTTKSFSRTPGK
Sequence of PD-1-mFc (human) (Q15116 other isoform, or with tags, fused parts or gaps limits assumed): as above

OD450 [1]: 1.09 OD and 1.17 OD
OD450 [2]: 0.288 OD and 0.305 OD
OD450 [3]: 2.22 OD and 2.35 OD
OD450 [4]: 1.73 OD and 1.81 OD
EC50 [5]: 0.042 nM
OD450 [6]: 2.43 OD and 2.53 OD
OD450 [7]: 2.46 OD and 2.57 OD
Kd [8]: 0.104 nM
koff [8]: 2.44e-05 s⁻¹
kon [8]: 234000 M⁻¹ s⁻¹
OD450 [9]: 0.547 OD and 0.587 OD
Substance: MEDI9447 (antibody)

OD450 (PD-1-mFc (human) [10]): 2.52 OD and 2.57 OD
OD450 (PD-1-mFc (human) [11]): 2.44 OD
OD450 (PD-1-mFc (human) [12]): 0.98 OD
OD450 (PD-1-mFc (human) [13]): 1.71 OD
OD450 (PD-1-mFc (human) [14]): 2.2 OD and 2.22 OD
EC50 [15]: 1.7 nM
OD450 [16]: 0.107 OD and 0.1 OD
OD450 [17]: 1.24 OD and 1.15 OD
OD450 [18]: 1.35 OD and 1.28 OD
OD450 [19]: 0.057 OD
OD450 (PD-1-mFc (human) [20]): 2.39 OD and 2.47 OD
OD450 (PD-1-mFc (human) [21]): 0.521 OD and 0.498 OD
OD450 [22]: 1.01 OD and 0.875 OD
OD450 [23]: 1.39 OD and 1.21 OD
OD450 [24]: 0.075 OD and 0.076 OD
Substance: nivolumab (antibody)
